These results are taken from US20250277025A1.

The assay concerns the target human CLDN18.2 expressed on cells (human). Briefly: cell-based or functional assay.

On to Human IgG1 isotype antibody, for which the ADCC (PBMC) on KATOIII CLDN18.2 cells, LDH: max (% cytotoxity) (run A) turned out to be 0.3%; the ADCC (PBMC) on KATOIII CLDN18.2 cells, LDH: max (% cytotoxity) (run B) is -5.51%; the ADCC (PBMC) on KATOIII CLDN18.2 cells, LDH: max (% cytotoxity) (run C) was -7.64%; the ADCC (PBMC) on NCI-N87 CLDN18.2 cells, LDH: max (% cytotoxity) (run A) is -6.73%. Also, the ADCC (PBMC) on NCI-N87 CLDN18.2 cells, LDH: max (% cytotoxity) (run B) is -11.7% and the ADCC (PBMC) on NCI-N87 CLDN18.2 cells, LDH: max (% cytotoxity) (run C) was -9.22%.
